Molecular target: T1, Soluble recombinant human leptin receptor (human, UniProt P48357 22-839)
T1 construct: leptin receptor (Ob R), human, soluble recombinant form; PDB 3V6O (CRH2 domain) was used only for docking; also called recombinant leptin receptor; Ob R; source: bought: Thermo Fischer, USA (synthesized in Escherichia coli)
T1 sequence (looked up): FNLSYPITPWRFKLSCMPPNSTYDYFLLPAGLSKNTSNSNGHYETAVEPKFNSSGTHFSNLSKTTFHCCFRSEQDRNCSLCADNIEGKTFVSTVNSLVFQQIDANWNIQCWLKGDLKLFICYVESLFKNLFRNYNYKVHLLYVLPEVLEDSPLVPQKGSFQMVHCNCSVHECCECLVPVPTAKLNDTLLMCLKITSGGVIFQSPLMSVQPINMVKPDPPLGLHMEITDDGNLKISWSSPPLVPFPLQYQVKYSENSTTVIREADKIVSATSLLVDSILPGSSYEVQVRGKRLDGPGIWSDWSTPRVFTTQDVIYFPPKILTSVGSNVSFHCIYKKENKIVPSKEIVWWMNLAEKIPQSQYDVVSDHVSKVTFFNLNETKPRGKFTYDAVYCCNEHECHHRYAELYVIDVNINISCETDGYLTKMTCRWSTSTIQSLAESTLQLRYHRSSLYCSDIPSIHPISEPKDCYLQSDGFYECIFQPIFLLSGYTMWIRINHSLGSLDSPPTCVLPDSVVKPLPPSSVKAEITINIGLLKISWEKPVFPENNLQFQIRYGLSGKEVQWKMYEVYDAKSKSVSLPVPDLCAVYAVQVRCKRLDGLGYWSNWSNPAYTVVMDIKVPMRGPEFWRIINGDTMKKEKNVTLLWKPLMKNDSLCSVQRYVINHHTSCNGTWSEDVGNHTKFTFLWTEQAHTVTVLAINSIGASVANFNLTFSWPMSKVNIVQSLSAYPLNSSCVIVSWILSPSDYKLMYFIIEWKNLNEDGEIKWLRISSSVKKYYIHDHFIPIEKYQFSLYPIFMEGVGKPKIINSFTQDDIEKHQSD
Assay: ELISA; solid phase binding assay; CRP forms or control proteins coated on a 96-well plate at 4°C overnight in Tris/HCl 0.05 M pH 7.4 (different concentrations, or 0.6 µg/ml for Figure 5B); blocked with 0.5% gelatin; leptin receptor 100 ng/ml in 50 µl PBS added for 1 h at RT; detected with anti-Ob R antibody and HRP anti-rabbit IgG
Conditions: both partners purified

Kd: 10.2 nM
B1: Monomeric CRP prepared from human serum CRP (natural protein, UniProt P02741 19-224, looked up)
chain: QTDMSRKAFVFPKESDTSYVSLKAPLTKPLKAFTVCLHFYTELSSTRGYSIFSYATKRQDNEILIFWSKDIGYSFTVGGSEILFEVPEVTVAPVHICTSWESASGIVEFWVDGKPRVRKSLKKGYTVGAEASIILGQEQDSFGGNFEGSQSLVGDIGNVNMWDFVLSPDEINTIYLGGPFSPNVLNWRALKYEVQGEVFTKPQLWP
notes: C-reactive protein, human, from serum; protomer of 206 amino acid residues as printed in the introduction; dissociated to the monomer with urea/EDTA; Same chain as native CRP, dissociated to monomers; also called s-mCRP; human mCRP; source: bought: Thermo Fischer, USA (human CRP); made monomeric with 8 M urea/10 mM EDTA at 37°C for 2 h
